In article PMC11969024 (2025):

B1: peptide HD2 (from tick evasin EVA4) / CCL17 (biotinylated, synthetic) (parent complex)
chain 1: EEDDYTAYAPLTCYFT
chain 2: ARGTNVGRECCLEYFKGAIPLRKLKTWYQTSEDCSRDAIVFVTVQGRAICSDPNNKRVKNAVKYLQSLERS

Variants of: B1
chain 1 Y5G was tested, and the enrichment was -7.21 log2 (difference from the parental peptide). In the case of chain 1 Y5A, the enrichment is reported as -5.17 log2 (difference from the parental peptide). With chain 1 Y5I the enrichment was -6.15 log2 (difference from the parental peptide). chain 1 Y5W was tested, and the enrichment was 0.266 log2 (difference from the parental peptide). For chain 1 Y5F, the enrichment was -2.8 log2 (difference from the parental peptide). With chain 1 Y5S the enrichment was -7.62 log2 (difference from the parental peptide). In the case of chain 1 Y5H, the enrichment is reported as -5.84 log2 (difference from the parental peptide). With chain 1 Y5P the enrichment was -4.51 log2 (difference from the parental peptide). chain 1 Y5M was tested, and the enrichment was -3.16 log2 (difference from the parental peptide). In the case of chain 1 T12P, the enrichment is reported as -4.02 log2 (difference from the parental peptide). For chain 1 T12S, the enrichment was -3.76 log2 (difference from the parental peptide). For chain 1 T12C, the enrichment was -3.34 log2 (difference from the parental peptide). With chain 1 T12Y the enrichment was -0.855 log2 (difference from the parental peptide). chain 1 T12I was tested, and the enrichment was 0.0487 log2 (difference from the parental peptide). For chain 1 T12V, the enrichment was -0.896 log2 (difference from the parental peptide). For chain 1 T12Q, the enrichment was -1.6 log2 (difference from the parental peptide). chain 1 T12N was tested, and the enrichment was -3.22 log2 (difference from the parental peptide). In the case of chain 1 T12G, the enrichment is reported as -10.4 log2 (difference from the parental peptide). For chain 1 T12K, the enrichment was -2.78 log2 (difference from the parental peptide). chain 1 T12D was tested, and the enrichment was -7.76 log2 (difference from the parental peptide). chain 1 T12M was tested, and the enrichment was 1.75 log2 (difference from the parental peptide). In the case of chain 1 T12H, the enrichment is reported as -2.06 log2 (difference from the parental peptide). With chain 1 T6R the enrichment was 0.942 log2 (difference from the parental peptide). With chain 1 T6Y the enrichment was 0.0769 log2 (difference from the parental peptide). In the case of chain 1 T6H, the enrichment is reported as 0.317 log2 (difference from the parental peptide). chain 1 T6L was tested, and the enrichment was -1.57 log2 (difference from the parental peptide). For chain 1 T6V, the enrichment was -4.25 log2 (difference from the parental peptide). In the case of chain 1 T6M, the enrichment is reported as -0.648 log2 (difference from the parental peptide). With chain 1 T6A the enrichment was 1.8 log2 (difference from the parental peptide). chain 1 T6K was tested, and the enrichment was 0.208 log2 (difference from the parental peptide). For chain 1 C13S, the enrichment was -8.83 log2 (difference from the parental peptide). With chain 1 C13Q the enrichment was -6.89 log2 (difference from the parental peptide). With chain 1 C13N the enrichment was -8.31 log2 (difference from the parental peptide). With chain 1 C13V the enrichment was -2.69 log2 (difference from the parental peptide). In the case of chain 1 C13T, the enrichment is reported as -5.42 log2 (difference from the parental peptide). For chain 1 C13F, the enrichment was -5.92 log2 (difference from the parental peptide). For chain 1 C13M, the enrichment was -2.5 log2 (difference from the parental peptide). chain 1 E2T was tested, and the enrichment was -2.14 log2 (difference from the parental peptide). With chain 1 E2C the enrichment was -10.1 log2 (difference from the parental peptide). In the case of chain 1 E2N, the enrichment is reported as -1.61 log2 (difference from the parental peptide). With chain 1 E2H the enrichment was -1.27 log2 (difference from the parental peptide). For chain 1 E2S, the enrichment was -1.29 log2 (difference from the parental peptide). For chain 1 E2W, the enrichment was -2.45 log2 (difference from the parental peptide). For chain 1 E2M, the enrichment was -1.82 log2 (difference from the parental peptide). With chain 1 E2D the enrichment was 1.45 log2 (difference from the parental peptide). With chain 1 Y8H the enrichment was -5.35 log2 (difference from the parental peptide). For chain 1 Y8V, the enrichment was -8.87 log2 (difference from the parental peptide). chain 1 Y8L was tested, and the enrichment was -8.14 log2 (difference from the parental peptide). For chain 1 Y8S, the enrichment was -8.85 log2 (difference from the parental peptide). For chain 1 Y8F, the enrichment was 0.399 log2 (difference from the parental peptide). With chain 1 Y8W the enrichment was -3.5 log2 (difference from the parental peptide). For chain 1 Y8C, the enrichment was -9.78 log2 (difference from the parental peptide). chain 1 A9E was tested, and the enrichment was -1.38 log2 (difference from the parental peptide). With chain 1 A9W the enrichment was -4.5 log2 (difference from the parental peptide). For chain 1 A9G, the enrichment was -7.21 log2 (difference from the parental peptide). chain 1 A9N was tested, and the enrichment was -4.52 log2 (difference from the parental peptide). For chain 1 A9Y, the enrichment was -8.18 log2 (difference from the parental peptide). chain 1 A9V was tested, and the enrichment was -9.17 log2 (difference from the parental peptide). In the case of chain 1 A9Q, the enrichment is reported as -1.77 log2 (difference from the parental peptide). With chain 1 D4S the enrichment was -4.05 log2 (difference from the parental peptide). For chain 1 D4R, the enrichment was -4.61 log2 (difference from the parental peptide). chain 1 D4W was tested, and the enrichment was -7.69 log2 (difference from the parental peptide). With chain 1 D4V the enrichment was -7.15 log2 (difference from the parental peptide). With chain 1 D4I the enrichment was -4.19 log2 (difference from the parental peptide). chain 1 D4K was tested, and the enrichment was -4.98 log2 (difference from the parental peptide). For chain 1 D4E, the enrichment was -0.373 log2 (difference from the parental peptide). In the case of chain 1 D4N, the enrichment is reported as -3.02 log2 (difference from the parental peptide). With chain 1 D4F the enrichment was -6.96 log2 (difference from the parental peptide). With chain 1 D4M the enrichment was -3.6 log2 (difference from the parental peptide). chain 1 D4P was tested, and the enrichment was -2.13 log2 (difference from the parental peptide). In the case of chain 1 D4Q, the enrichment is reported as -3.42 log2 (difference from the parental peptide). For chain 1 D4Y, the enrichment was -5.69 log2 (difference from the parental peptide). chain 1 T16E was tested, and the enrichment was 1.12 log2 (difference from the parental peptide). In the case of chain 1 T16P, the enrichment is reported as 1.33 log2 (difference from the parental peptide). For chain 1 T16W, the enrichment was -1.23 log2 (difference from the parental peptide). chain 1 T16S was tested, and the enrichment was 0.663 log2 (difference from the parental peptide). With chain 1 T16V the enrichment was -0.108 log2 (difference from the parental peptide). For chain 1 T16N, the enrichment was 0.157 log2 (difference from the parental peptide). For chain 1 T16A, the enrichment was 1.13 log2 (difference from the parental peptide). chain 1 T16Q was tested, and the enrichment was 1.17 log2 (difference from the parental peptide). chain 1 T16G was tested, and the enrichment was 0.943 log2 (difference from the parental peptide). With chain 1 T16I the enrichment was -0.321 log2 (difference from the parental peptide). In the case of chain 1 T16C, the enrichment is reported as -5.46 log2 (difference from the parental peptide). chain 1 T16M was tested, and the enrichment was 0.118 log2 (difference from the parental peptide). With chain 1 T16R the enrichment was -1.43 log2 (difference from the parental peptide). With chain 1 T16Y the enrichment was -0.84 log2 (difference from the parental peptide). For chain 1 A7V, the enrichment was -4.48 log2 (difference from the parental peptide). chain 1 A7T was tested, and the enrichment was -1.52 log2 (difference from the parental peptide). With chain 1 A7E the enrichment was -0.527 log2 (difference from the parental peptide). For chain 1 A7S, the enrichment was 0.977 log2 (difference from the parental peptide). In the case of chain 1 A7N, the enrichment is reported as 2.1 log2 (difference from the parental peptide). chain 1 A7M was tested, and the enrichment was 1.3 log2 (difference from the parental peptide). With chain 1 A7H the enrichment was 1.03 log2 (difference from the parental peptide). chain 1 A7F was tested, and the enrichment was -3.04 log2 (difference from the parental peptide). In the case of chain 1 A7D, the enrichment is reported as 0.474 log2 (difference from the parental peptide). With chain 1 A7Y the enrichment was -1.58 log2 (difference from the parental peptide). In the case of chain 1 A7G, the enrichment is reported as 2.15 log2 (difference from the parental peptide). In the case of chain 1 Y14T, the enrichment is reported as -3.79 log2 (difference from the parental peptide). In the case of chain 1 Y14C, the enrichment is reported as -7.42 log2 (difference from the parental peptide). For chain 1 Y14L, the enrichment was -4.61 log2 (difference from the parental peptide). chain 1 F15Q was tested, and the enrichment was -0.329 log2 (difference from the parental peptide). In the case of chain 1 F15L, the enrichment is reported as 0.236 log2 (difference from the parental peptide). With chain 1 F15M the enrichment was 0.0931 log2 (difference from the parental peptide). With chain 1 F15K the enrichment was 0.71 log2 (difference from the parental peptide). For chain 1 F15V, the enrichment was 1.08 log2 (difference from the parental peptide). For chain 1 F15H, the enrichment was 0.105 log2 (difference from the parental peptide). With chain 1 F15Y the enrichment was 2.54 log2 (difference from the parental peptide). In the case of chain 1 F15A, the enrichment is reported as 0.597 log2 (difference from the parental peptide). In the case of chain 1 F15N, the enrichment is reported as -1.55 log2 (difference from the parental peptide). In the case of chain 1 F15T, the enrichment is reported as 0.347 log2 (difference from the parental peptide). In the case of chain 1 F15P, the enrichment is reported as 1.23 log2 (difference from the parental peptide). For chain 1 F15G, the enrichment was -3.49 log2 (difference from the parental peptide). In the case of chain 1 L11D, the enrichment is reported as -9.19 log2 (difference from the parental peptide). With chain 1 L11E the enrichment was -4.46 log2 (difference from the parental peptide). For chain 1 L11H, the enrichment was 2.36 log2 (difference from the parental peptide). chain 1 L11W was tested, and the enrichment was -0.813 log2 (difference from the parental peptide). For chain 1 L11A, the enrichment was -1.12 log2 (difference from the parental peptide). chain 1 L11R was tested, and the enrichment was 3.2 log2 (difference from the parental peptide). In the case of chain 1 L11S, the enrichment is reported as -0.205 log2 (difference from the parental peptide). chain 1 L11N was tested, and the enrichment was -6.23 log2 (difference from the parental peptide). With chain 1 L11K the enrichment was 2.96 log2 (difference from the parental peptide). For chain 1 D3L, the enrichment was -4.35 log2 (difference from the parental peptide). With chain 1 D3A the enrichment was -2.38 log2 (difference from the parental peptide). In the case of chain 1 D3T, the enrichment is reported as -2.29 log2 (difference from the parental peptide). In the case of chain 1 D3M, the enrichment is reported as -4.48 log2 (difference from the parental peptide). chain 1 D3H was tested, and the enrichment was -2.9 log2 (difference from the parental peptide). For chain 1 D3S, the enrichment was -2.79 log2 (difference from the parental peptide). For chain 1 D3Y, the enrichment was -3.2 log2 (difference from the parental peptide). For chain 1 D3E, the enrichment was 0.618 log2 (difference from the parental peptide). In the case of chain 1 D3Q, the enrichment is reported as -1.63 log2 (difference from the parental peptide). chain 1 D3F was tested, and the enrichment was -5.06 log2 (difference from the parental peptide). With chain 1 E1A the enrichment was 0.0959 log2 (difference from the parental peptide). With chain 1 E1M the enrichment was 0.0225 log2 (difference from the parental peptide). For chain 1 E1W, the enrichment was -2.36 log2 (difference from the parental peptide). For chain 1 E1Y, the enrichment was -0.248 log2 (difference from the parental peptide). In the case of chain 1 E1D, the enrichment is reported as 2.62 log2 (difference from the parental peptide). chain 1 E1L was tested, and the enrichment was -0.975 log2 (difference from the parental peptide). With chain 1 E1G the enrichment was 0.607 log2 (difference from the parental peptide). chain 1 E1V was tested, and the enrichment was -0.847 log2 (difference from the parental peptide). For chain 1 E1N, the enrichment was 0.681 log2 (difference from the parental peptide). With chain 1 E1Q the enrichment was 0.156 log2 (difference from the parental peptide). For chain 1 E1I, the enrichment was -0.523 log2 (difference from the parental peptide). With chain 1 P10W the enrichment was -5.95 log2 (difference from the parental peptide). For chain 1 P10L, the enrichment was -8.28 log2 (difference from the parental peptide). In the case of chain 1 P10G, the enrichment is reported as -9.32 log2 (difference from the parental peptide). chain 1 P10Q was tested, and the enrichment was -4.91 log2 (difference from the parental peptide). For chain 1 P10A, the enrichment was -8.82 log2 (difference from the parental peptide). chain 1 P10D was tested, and the enrichment was -8.51 log2 (difference from the parental peptide). chain 1 P10E was tested, and the enrichment was -6.42 log2 (difference from the parental peptide). With chain 1 P10T the enrichment was -7.97 log2 (difference from the parental peptide).
